Assay results taken from US20110229461A1 (UCB, published 2011).

B1: antibody CA051-00949 (949), parental variable regions, murine IgG1 (antibody, V domains shown)
VH: QVQLQQSGAELVKPGASVKMSCKAFGYTFTTYPIEWMKQNHGKSLEWIGNFHPYNDDTKYNEKFKGKAKLTVEKSSTTVYLELSRLTSDDSAVYYCARENYGSHGGFVYWGQGTLVTVS
VL: ENVLTQSPAIMSASPGEKVTMTCRASSSVISSYLHWYQQKSGASPKLWIYSTSNLASGVPDRFSGSGSGTSYSLTISSVEAEDAATYYCQQYNGYPLTFGAGTKLEIK
notes: also called Clone 19
B2: 949 VK1 gL9 gH8a (antibody, V domains shown)
VH: EVQLVQSGAEVKKPGASVKVSCKAFGYTFTTYPIEWMRQAHGQGLEWIGNFHPYNDDTKYNEKFKGRVTMTRDTSTSTVYMELSSLRSEDTAVYYCARENYGSHGGFVYWGQGTLVTVS
VL: ENVLTQSPFSLSASVGDRVTITCRASSSVISSYLHWYQQKPAKAPKLFIYSTSNLASGVPSRFSGSGSGTDYTLTISSLQPEDFATYYCQQYNGYPLTFGGGTKVEIK
notes: Humanised; human kappa constant (Km3)
B3: 949 VK1 gL9 gH8b (antibody, V domains shown)
VH: EVQLVQSGAEVKKPGSSVKVSCKAFGYTFTTYPIEWMRQAHGQGLEWIGNFHPYNDDTKYNEKFKGRVTITADKSTSTAYMELSSLRSEDTAVYYCARENYGSHGGFVYWGQGTLVTVS
VL: ENVLTQSPFSLSASVGDRVTITCRASSSVISSYLHWYQQKPAKAPKLFIYSTSNLASGVPSRFSGSGSGTDYTLTISSLQPEDFATYYCQQYNGYPLTFGGGTKVEIK
notes: as for B2
B4: 949 VK3 gL1 gH1a (antibody, V domains shown)
VH: EVQLVQSGAEVKKPGASVKVSCKAFGYTFTTYPIEWMRQAHGQGLEWIGNFHPYNDDTKYNEKFKGRVTMTVDKSTTTVYMELSSLRSEDTAVYYCARENYGSHGGFVYWGQGTLVTVS
VL: ENVLTQSPGTLSLSPGERATLSCRASSSVISSYLHWYQQKPGQAPRLWIYSTSNLASGVPDRFSGSGSGTSYTLTISRLEPEDFATYYCQQYNGYPLTFGGGTKVEIK
notes: as for B2
B5: 949 VK1 gL9 gH20a (antibody, V domains shown)
VH: EVQLVQSGAEVKKPGASVKVSCKAFGYTFTTYPIEWVRQAPGQGLEWMGNFHPYNDDTKYNEKFKGRVTMTRDTSTSTVYMELSSLRSEDTAVYYCARENYGSHGGFVYWGQGTLVTVS
VL: ENVLTQSPFSLSASVGDRVTITCRASSSVISSYLHWYQQKPAKAPKLFIYSTSNLASGVPSRFSGSGSGTDYTLTISSLQPEDFATYYCQQYNGYPLTFGGGTKVEIK
notes: as for B2
B6: 949 VK1 gL12 gH20a (antibody, V domains shown)
VH: EVQLVQSGAEVKKPGASVKVSCKAFGYTFTTYPIEWVRQAPGQGLEWMGNFHPYNDDTKYNEKFKGRVTMTRDTSTSTVYMELSSLRSEDTAVYYCARENYGSHGGFVYWGQGTLVTVS
VL: ENVMTQSPFSLSASVGDRVTITCRASSSVISSYLHWYQQKPAKAPKLFIYSTSNLASGVPSRFSGSGSGTDYTLTISSLQPEDFATYYCQQYNGYPLTFGGGTKVEIK
notes: as for B2
B7: 949 VK1 gL1 gH1b (antibody, V domains shown)
VH: EVQLVQSGAEVKKPGSSVKVSCKAFGYTFTTYPIEWMRQAHGQGLEWIGNFHPYNDDTKYNEKFKGRVTITVDKSTTTVYMELSSLRSEDTAVYYCARENYGSHGGFVYWGQGTLVTVS
VL: ENVLTQSPFSLSASVGDRVTITCRASSSVISSYLHWYQQKPAKAPKLWIYSTSNLASGVPDRFSGSGSGTSYTLTISSLQPEDFATYYCQQYNGYPLTFGGGTKVEIK
notes: as for B2
B8: 949 VK1 gL15 gH20a (antibody, V domains shown)
VH: EVQLVQSGAEVKKPGASVKVSCKAFGYTFTTYPIEWVRQAPGQGLEWMGNFHPYNDDTKYNEKFKGRVTMTRDTSTSTVYMELSSLRSEDTAVYYCARENYGSHGGFVYWGQGTLVTVS
VL: ENVLTQSPFSLSASVGDRVTITCRASSSVISSYLHWYQQKPAKAPKLFIYSTSNLASGVPSRFSGSGSGTDYTLTISSLQPEDFATYYCQQYNSYPLTFGGGTKVEIK
notes: Humanised; human kappa constant (Km3); also called Transient #4
B9: 949 VK3 gL1 gH1b (antibody, V domains shown)
VH: EVQLVQSGAEVKKPGSSVKVSCKAFGYTFTTYPIEWMRQAHGQGLEWIGNFHPYNDDTKYNEKFKGRVTITVDKSTTTVYMELSSLRSEDTAVYYCARENYGSHGGFVYWGQGTLVTVS
VL: ENVLTQSPGTLSLSPGERATLSCRASSSVISSYLHWYQQKPGQAPRLWIYSTSNLASGVPDRFSGSGSGTSYTLTISRLEPEDFATYYCQQYNGYPLTFGGGTKVEIK
notes: as for B2
B10: 949 VK1 gL15 gH20b (antibody, V domains shown)
VH: EVQLVQSGAEVKKPGSSVKVSCKASGYTFTTYPIEWVRQAPGQGLEWMGNFHPYNDDTKYNEKFKGRVTITADKSTSTAYMELSSLRSEDTAVYYCARENYGSHGGFVYWGQGTLVTVS
VL: ENVLTQSPFSLSASVGDRVTITCRASSSVISSYLHWYQQKPAKAPKLFIYSTSNLASGVPSRFSGSGSGTDYTLTISSLQPEDFATYYCQQYNSYPLTFGGGTKVEIK
notes: Humanised; also called Transient #5
B11: 949 VK1 gL1 gH1a (antibody, V domains shown)
VH: EVQLVQSGAEVKKPGASVKVSCKAFGYTFTTYPIEWMRQAHGQGLEWIGNFHPYNDDTKYNEKFKGRVTMTVDKSTTTVYMELSSLRSEDTAVYYCARENYGSHGGFVYWGQGTLVTVS
VL: ENVLTQSPFSLSASVGDRVTITCRASSSVISSYLHWYQQKPAKAPKLWIYSTSNLASGVPDRFSGSGSGTSYTLTISSLQPEDFATYYCQQYNGYPLTFGGGTKVEIK
notes: Humanised; human kappa constant (Km3); Heavy V regions were cloned into gamma-4P (S241P), gamma-4P delta Lys and gamma-1 delta Lys vectors
B12: 949 VK1 gL14 gH8b (antibody, V domains shown)
VH: EVQLVQSGAEVKKPGSSVKVSCKAFGYTFTTYPIEWMRQAHGQGLEWIGNFHPYNDDTKYNEKFKGRVTITADKSTSTAYMELSSLRSEDTAVYYCARENYGSHGGFVYWGQGTLVTVS
VL: ENVMTQSPFSLSASVGDRVTITCRASSSVISSYLHWYQQKPAKAPKLFIYSTSNLASGVPSRFSGSGSGTDYTLTISSLQPEDFATYYCQQYNSYPLTFGGGTKVEIK
notes: as for B2
B13: 949 VK1 gL14 gH8a (antibody, V domains shown)
VH: EVQLVQSGAEVKKPGASVKVSCKAFGYTFTTYPIEWMRQAHGQGLEWIGNFHPYNDDTKYNEKFKGRVTMTRDTSTSTVYMELSSLRSEDTAVYYCARENYGSHGGFVYWGQGTLVTVS
VL: ENVMTQSPFSLSASVGDRVTITCRASSSVISSYLHWYQQKPAKAPKLFIYSTSNLASGVPSRFSGSGSGTDYTLTISSLQPEDFATYYCQQYNSYPLTFGGGTKVEIK
notes: as for B2
B14: 949 VK1 gL12 gH20b (antibody, V domains shown)
VH: EVQLVQSGAEVKKPGSSVKVSCKASGYTFTTYPIEWVRQAPGQGLEWMGNFHPYNDDTKYNEKFKGRVTITADKSTSTAYMELSSLRSEDTAVYYCARENYGSHGGFVYWGQGTLVTVS
VL: ENVMTQSPFSLSASVGDRVTITCRASSSVISSYLHWYQQKPAKAPKLFIYSTSNLASGVPSRFSGSGSGTDYTLTISSLQPEDFATYYCQQYNGYPLTFGGGTKVEIK
notes: as for B2
B15: 949 VK1 gL9 gH20b (antibody, V domains shown)
VH: EVQLVQSGAEVKKPGSSVKVSCKASGYTFTTYPIEWVRQAPGQGLEWMGNFHPYNDDTKYNEKFKGRVTITADKSTSTAYMELSSLRSEDTAVYYCARENYGSHGGFVYWGQGTLVTVS
VL: ENVLTQSPFSLSASVGDRVTITCRASSSVISSYLHWYQQKPAKAPKLFIYSTSNLASGVPSRFSGSGSGTDYTLTISSLQPEDFATYYCQQYNGYPLTFGGGTKVEIK
notes: Humanised; human kappa constant (Km3); also called Transient #1
B16: 949 VK1 gL12 gH8a (antibody, V domains shown)
VH: EVQLVQSGAEVKKPGASVKVSCKAFGYTFTTYPIEWMRQAHGQGLEWIGNFHPYNDDTKYNEKFKGRVTMTRDTSTSTVYMELSSLRSEDTAVYYCARENYGSHGGFVYWGQGTLVTVS
VL: ENVMTQSPFSLSASVGDRVTITCRASSSVISSYLHWYQQKPAKAPKLFIYSTSNLASGVPSRFSGSGSGTDYTLTISSLQPEDFATYYCQQYNGYPLTFGGGTKVEIK
notes: as for B2
B17: 949 VK1 gL15 gH8b (antibody, V domains shown)
VH: EVQLVQSGAEVKKPGSSVKVSCKAFGYTFTTYPIEWMRQAHGQGLEWIGNFHPYNDDTKYNEKFKGRVTITADKSTSTAYMELSSLRSEDTAVYYCARENYGSHGGFVYWGQGTLVTVS
VL: ENVLTQSPFSLSASVGDRVTITCRASSSVISSYLHWYQQKPAKAPKLFIYSTSNLASGVPSRFSGSGSGTDYTLTISSLQPEDFATYYCQQYNSYPLTFGGGTKVEIK
notes: Humanised; human kappa constant (Km3); also called Transient #3
B18: 949 VK1 gL12 gH8b (antibody, V domains shown)
VH: EVQLVQSGAEVKKPGSSVKVSCKAFGYTFTTYPIEWMRQAHGQGLEWIGNFHPYNDDTKYNEKFKGRVTITADKSTSTAYMELSSLRSEDTAVYYCARENYGSHGGFVYWGQGTLVTVS
VL: ENVMTQSPFSLSASVGDRVTITCRASSSVISSYLHWYQQKPAKAPKLFIYSTSNLASGVPSRFSGSGSGTDYTLTISSLQPEDFATYYCQQYNGYPLTFGGGTKVEIK
notes: as for B2
B19: 949 VK3 gL11 gH1a (antibody, V domains shown)
VH: EVQLVQSGAEVKKPGASVKVSCKAFGYTFTTYPIEWMRQAHGQGLEWIGNFHPYNDDTKYNEKFKGRVTMTVDKSTTTVYMELSSLRSEDTAVYYCARENYGSHGGFVYWGQGTLVTVS
VL: ENVLTQSPGTLSLSPGERATLSCRASSSVISSYLHWYQQKPGQAPRLWIYSTSNLASGVPDRFSGSGSGTSYTLTISRLEPEDFATYYCQQYNSYPLTFGGGTKVEIK
notes: as for B2
B20: 949 VK1 gL11 gH1a (antibody, V domains shown)
VH: EVQLVQSGAEVKKPGASVKVSCKAFGYTFTTYPIEWMRQAHGQGLEWIGNFHPYNDDTKYNEKFKGRVTMTVDKSTTTVYMELSSLRSEDTAVYYCARENYGSHGGFVYWGQGTLVTVS
VL: ENVLTQSPFSLSASVGDRVTITCRASSSVISSYLHWYQQKPAKAPKLWIYSTSNLASGVPDRFSGSGSGTSYTLTISSLQPEDFATYYCQQYNSYPLTFGGGTKVEIK
notes: as for B2
B21: 949 VK1 gL15 gH8a (antibody, V domains shown)
VH: EVQLVQSGAEVKKPGASVKVSCKAFGYTFTTYPIEWMRQAHGQGLEWIGNFHPYNDDTKYNEKFKGRVTMTRDTSTSTVYMELSSLRSEDTAVYYCARENYGSHGGFVYWGQGTLVTVS
VL: ENVLTQSPFSLSASVGDRVTITCRASSSVISSYLHWYQQKPAKAPKLFIYSTSNLASGVPSRFSGSGSGTDYTLTISSLQPEDFATYYCQQYNSYPLTFGGGTKVEIK
notes: Humanised; human kappa constant (Km3); also called Transient #2

Columns and labels:
[1] = biological target: T1, human PD-1 (recombinant, titrated in BIAcore) (human, UniProt Q15116 25-170); test: SPR BIAcore 3000; antibody captured by anti-human Fc, human PD-1 titrated;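 further: CM5 chip with amine-coupled goat anti-human Fc F(ab′)₂, HBS-EP running buffer at 10 µL/min, blank-surface-subtracted sensorgrams fitted in BIAevaluation 3.2 for kinetic constants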
T1 construct: extracellular domain; also called recombinant human PD-1 extracellular domain

[2] = biological target: T2, human PD-1 on cells (transfected HEK293 cells; human T cells) (human, UniProt Q15116 25-288); test: flow cytometry on activated human T cells
T2 construct: whole, on cells; HEK293 cells transiently transfected with human PD-1 DNA; also called PD-1 expressing HEK293 cells; PD-1 transfected HEK cells
T2 sequence (Q15116 25-288): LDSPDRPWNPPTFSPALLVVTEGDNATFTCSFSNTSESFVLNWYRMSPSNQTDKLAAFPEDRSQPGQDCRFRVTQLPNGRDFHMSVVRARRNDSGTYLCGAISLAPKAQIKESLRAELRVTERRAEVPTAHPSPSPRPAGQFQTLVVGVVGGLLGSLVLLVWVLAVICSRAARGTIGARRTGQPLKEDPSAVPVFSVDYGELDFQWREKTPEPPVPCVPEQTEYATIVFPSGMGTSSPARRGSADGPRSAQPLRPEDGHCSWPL

T1 sequence (Q15116 25-170): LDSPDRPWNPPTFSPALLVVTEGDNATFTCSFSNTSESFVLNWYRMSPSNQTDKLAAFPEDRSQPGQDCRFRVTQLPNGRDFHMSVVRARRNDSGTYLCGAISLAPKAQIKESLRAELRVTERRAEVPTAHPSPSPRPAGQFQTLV

| Binder | Kd [1] [nM] | koff [1] [s⁻¹] | kon [1] [M⁻¹ s⁻¹] | EC50 [2] [µg/mL] |
| --- | --- | --- | --- | --- |
| B1 | 5.07 | – | – | – |
| B2 | 2.35 | – | – | – |
| B3 | 2.34 | – | – | – |
| B4 | 4.02 | 0.000844 | 210000 | – |
| B5 | 3.17 | – | – | – |
| B6 | 3.38 | – | – | – |
| B7 | 2.92 | 0.000556 | 191000 | – |
| B8 | – | – | – | 2.89 |
| B9 | 3.14 | 0.00065 | 207000 | – |
| B10 | – | – | – | 4.1 |
| B11 | 3.71 | 0.000782 | 211000 | – |
| B12 | 4.38 | – | – | – |
| B13 | 4.75 | – | – | – |
| B14 | 3.8 | – | – | – |
| B15 | 2.66 | – | – | 1.14 |
| B16 | 2.46 | – | – | – |
| B17 | – | – | – | 6.09 |
| B18 | 2.77 | – | – | – |
| B19 | 4.89 | 0.00109 | 223000 | – |
| B20 | 5.54 | 0.00115 | 207000 | – |
| B21 | – | – | – | 3.15 |
